Source: patent US20250009780A1, “AGENTS ENCODING CLDN6 AND CD3 BINDING ELEMENTS FOR TREATING CLDN6-POSITIVE CANCERS” (BIONTECH SE, priority 2021, published 2025)
Where “and” joins values, the source holds several entries; their conditions need not be identical. Equal entries are not always repeated.

How the values were obtained:
simian CD3 = molecular target: T1, simian CD3 (Macaca fascicularis, UniProt Q95LI5); experiment: Flow cytometric binding assay, cynomolgus monkey PBMCs; details: 10 μg/mL
T1 construct: endogenous in cells; host or cells: cynomolgus monkey PBMCs (T cells)
T1 sequence (Q95LI5 22-198): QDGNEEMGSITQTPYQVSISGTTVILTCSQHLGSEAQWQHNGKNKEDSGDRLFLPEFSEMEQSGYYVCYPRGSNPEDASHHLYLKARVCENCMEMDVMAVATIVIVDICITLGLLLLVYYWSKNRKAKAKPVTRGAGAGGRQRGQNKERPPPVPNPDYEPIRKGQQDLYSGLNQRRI
T1 sequence (Q95LI8 22-171 partner): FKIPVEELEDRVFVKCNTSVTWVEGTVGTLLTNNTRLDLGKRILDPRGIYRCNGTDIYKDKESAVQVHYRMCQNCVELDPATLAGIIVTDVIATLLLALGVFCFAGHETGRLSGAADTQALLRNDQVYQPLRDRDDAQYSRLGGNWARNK
T1 sequence (Q95LI7 23-181 partner): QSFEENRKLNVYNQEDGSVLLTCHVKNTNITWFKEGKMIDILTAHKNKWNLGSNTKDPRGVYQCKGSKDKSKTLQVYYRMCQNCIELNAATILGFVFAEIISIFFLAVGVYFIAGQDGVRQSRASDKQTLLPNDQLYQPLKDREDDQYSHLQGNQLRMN
Description: (§1) Cells were first gated for singlets followed by gating for viable lymphocytes (PBMCs) or viable HEK-293T-17 cells. […] Cynomolgus monkey or human PBMCs and HEK-293T-17 transductants stably expressing luciferase (HEK-293T-17_mock), CLDN3, 4, 6 or 9 served as target cells as indicated. The dotted vertical line marks the peak position of unstained populations.

[1] = Single-dose PK study of BNT142 in cynomolgus monkeys
[2] = cynomolgus monkey, in vivo
human PBMCs (T cells) = experiment: T-cell activation assay (CD69/CD25, flow cytometry); format: cell-based
Experimental: Human PBMCs from three healthy donors (effector cells) were cultured in the presence and absence of CLDN6-positive PA-1 cells (target cells) at a 10:1 effector-to-target-cell ratio. RiboMab02.1-containing mouse serum was serially-diluted (10-fold, 10-point; range: 4.0×10^−6 to 4,000 ng/mL) prior to use in the assay. After 48 h of co-incubation, cells were stained with anti-CD5, anti-CD69 and anti-CD25 antibodies for flow cytometric analysis of T cells. Shown here is the total T-cell activation normalized to samples incubated with mock serum from Luc_RNA-LNP-treated mice. Percentages of activated T cells are shown for each individual donor (left) and for all three donors as mean (right). Filled symbols represent values with and black, open symbols without target cells.
RiboMab02.1-containing as well as mock serum samples were obtained from mice administered either with BNT142 or luciferase encoding RNA-LNP (Luc_RNA-LNP; mock). Human PBMCs from three healthy donors were used as effector cells. Serum samples were serially-diluted (10-fold, 10-point), starting at 4,000 ng/mL, and added to PBMCs cultured alone or together with CLDN6-positive PA-1 target cells at an effector-to-target-cell ratio of 10:1. After 48 h of incubation, T cells were analyzed by flow cytometry for surface expression of the early and late activation markers CD69 and CD25, respectively. […] OKT3 positive control led to >50% T-cell activation with and without target cells (data not shown). Upregulation of CD69 on T cells was higher than that of CD25; CD25-positive cells were almost exclusively CD69 double-positive, pointing to an early activation state (data not shown).

CLDN9 = molecular target: T2, CLDN9 (Homo sapiens, UniProt O95484); experiment: Flow cytometric binding assay, HEK-293T-17 CLDN9 transductants; parameters: expressed in transfected cells; details: 10 μg/mL RiboMab02.1 in HEK-293T-17 supernatant
T2 sequence (O95484 1-217): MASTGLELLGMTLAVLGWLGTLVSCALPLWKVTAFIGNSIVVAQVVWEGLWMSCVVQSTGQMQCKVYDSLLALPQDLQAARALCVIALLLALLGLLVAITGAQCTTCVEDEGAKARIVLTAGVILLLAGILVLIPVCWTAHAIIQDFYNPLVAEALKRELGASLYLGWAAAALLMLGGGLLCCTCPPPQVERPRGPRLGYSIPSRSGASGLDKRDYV
Description: as §1

CLDN6 = molecular target: T3, CLDN6 (Homo sapiens, UniProt P56747); experiment: Flow cytometric binding assay, HEK-293T-17 CLDN6 transductants; details: 10 μg/mL RiboMab02.1 in HEK-293T-17 supernatant
T3 construct: expressed in transfected cells
T3 sequence (P56747 1-220): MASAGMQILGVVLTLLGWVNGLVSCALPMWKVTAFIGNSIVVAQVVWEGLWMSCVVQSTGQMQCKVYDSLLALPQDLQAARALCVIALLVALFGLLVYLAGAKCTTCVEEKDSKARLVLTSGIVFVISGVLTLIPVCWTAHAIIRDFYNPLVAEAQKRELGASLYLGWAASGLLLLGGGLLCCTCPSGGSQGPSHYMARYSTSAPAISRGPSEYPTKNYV
Description: as §1

[3] = Anti-drug antibody (ADA) sandwich immunoassay in mouse serum; format: in vivo, Balb/cJRj mice; details: 30 μg RNA-LNP IV single dose; compared to RiboMab_712/711
Experimental: Four female Balb/cJRj mice received an IV single dose of 30 μg RNA-LNP per mouse (˜1.4 mg/kg). Serum was sampled pre- and 6, 24, 48, 96, 168, 216, 265 and 528 hours (0.25 to 22 days) post-administration.
Anti-RiboMab02.1 and anti-RiboMab_712/711 drug antibodies (ADAs) in mouse sera were determined using a Gyros xPand™ XPA1025 ELISA device from Gyros Protein Technologies AB. Sandwich immunoassay was processed on a Gyrolab Bioaffy 200 CD.
Anti-RiboMab ADAs were captured using 100 μg/mL biotinylated drug antibody. Serum ADA levels were detected with 25 nM Alexa Fluor 647-conjugated AffiniPure goat anti-mouse IgG, Fc fragment specific antibody. Data were generated using the 200-3W-002-A method and the results were analyzed using Gyrolab Evaluator software.
The positive ADA response was determined according to the floating cut-point. Therefore, the cut-point was calculated using the response of the negative sera (pre-bleeds) and the formula, normalization factor (NF)+mean negative controls (NC).
NF=X*SD of the negative samples; X=1.645; SD=standard deviation of the negative sera (pre-bleeds); NC=3 negative controls (pooled negative sera).

human PBMCs = experiment: In vitro human cytokine release (multiplex ELISA on T-cell activation assay supernatants); format: cell-based
Experimental: Cytokine concentration values for each donor (means of technical triplicates) are shown. Filled symbols represent values with target cells while open symbols represent values without target cells.
Cell culture supernatants obtained from the T-cell activation assay were analyzed to investigate the RiboMab02.1-dependent induction of on- and off-target cytokine release. The levels of human pro-inflammatory cytokines IFN-γ, IL-1β, IL-2, IL-6, IL-10 and TNF-α were measured using a customized multiplex ELISA kit.

CLDN3 = molecular target: T4, CLDN3 (Homo sapiens, UniProt O15551); experiment: Flow cytometric binding assay, HEK-293T-17 CLDN3 transductants; details: 10 μg/mL RiboMab02.1 in HEK-293T-17 supernatant
T4 construct: expressed in transfected cells
T4 sequence (O15551 1-220): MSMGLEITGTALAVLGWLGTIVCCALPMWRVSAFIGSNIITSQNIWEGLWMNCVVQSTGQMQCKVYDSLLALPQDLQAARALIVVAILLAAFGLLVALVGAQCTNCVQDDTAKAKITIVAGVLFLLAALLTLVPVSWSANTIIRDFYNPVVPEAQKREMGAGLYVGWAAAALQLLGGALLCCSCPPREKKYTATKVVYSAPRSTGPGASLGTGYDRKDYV
Description: as §1

[4] = 0.050 mg/kg, individual animals

## RiboMab02.1: Fab-(scFv)2-based bispecific antibody (tribody) against CLDN6 and CD3 encoded by BNT142; SEQ ID NOs: 4 and 6; C53S
Simian CD3
  binding to simian CD3: not simian CD3 was recognized
[1]; 0.050 mg/kg, group, n=2
  Effective t1/2 (mean): 28.1 h
[1]; 0.050 mg/kg, group, n=3
  Cmax (mean): 27.5 ng/mL
  Ctrough (mean): 3.6 ng/mL
  tlast (median): 72 h
[1]; [4]
  Cmax: 32.8 ng/mL and 19.1 ng/mL and 30.7 ng/mL
  Ctrough: 0.6 ng/mL and 5.6 ng/mL
  tlast: 168 h and 72 h (2×)
[1]; 0.050 mg/kg, individual animals, from MRT0-inf
  Effective t1/2: 28.1 h
[1]; […], group, n=1
  Effective t1/2 (mean): 26.5 h
[1]; […], group, n=3
  Effective t1/2 (mean): 36.6 h
[1]; […], individual animals, calculated from MRT0-inf
  Effective t1/2: 26.5 h
[1]; highest dose group
  inter-individual difference in concentration at Cmax: 2 fold
[2]
  anticipated full clearance from the human body (five half-lives): 135 to 185 h
Human PBMCs (T cells); PBMCs without target cells, up to 40 ng/mL RiboMab02.1, 48 h
  off-target T-cell activation: No off-target T-cell activation
Human PBMCs (T cells); onset of unspecific T-cell activation relative to EC50
  concentration above EC50 up to which T-cell activation is target-dependent: > 1,500 fold
CLDN9
  binding to CLDN9: not to CLDN3, CLDN4 or CLDN9
CLDN6
  binding to CLDN6: bound specifically
[3]
  immunogenic potential (ADA response): lower immunogenic potential
Human PBMCs; absence of CLDN6-positive PA-1 target cells
  cytokine induction: no cytokine induction was observed
Human PBMCs; absence of target cells, highest concentration of RiboMab02.1
  IL-6 induction: low induction of IL-6 seen with one donor
Human PBMCs; presence of PA-1 target cells, dose- and donor-dependent
  release of IFN-γ, IL-1β, IL-2, IL-6, IL-10 and TNF-α: induced the release of all cytokines
CLDN3
  binding to CLDN3: not to CLDN3, CLDN4 or CLDN9
